The labels stand for the following.
T1: FZD5 (UniProt Q13467 28-150, limits assumed)
T1 construct: also called Frizzled 5
T1 sequence (looked up): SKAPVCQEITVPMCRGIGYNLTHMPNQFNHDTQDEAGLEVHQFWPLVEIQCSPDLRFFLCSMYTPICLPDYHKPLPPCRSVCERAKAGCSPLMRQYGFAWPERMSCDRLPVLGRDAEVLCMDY

T2: LRP6E1E2 (UniProt O75581 20-630)
T2 construct: domain: E1E2; also called LRP6 E1E2 domains
T2 sequence (looked up): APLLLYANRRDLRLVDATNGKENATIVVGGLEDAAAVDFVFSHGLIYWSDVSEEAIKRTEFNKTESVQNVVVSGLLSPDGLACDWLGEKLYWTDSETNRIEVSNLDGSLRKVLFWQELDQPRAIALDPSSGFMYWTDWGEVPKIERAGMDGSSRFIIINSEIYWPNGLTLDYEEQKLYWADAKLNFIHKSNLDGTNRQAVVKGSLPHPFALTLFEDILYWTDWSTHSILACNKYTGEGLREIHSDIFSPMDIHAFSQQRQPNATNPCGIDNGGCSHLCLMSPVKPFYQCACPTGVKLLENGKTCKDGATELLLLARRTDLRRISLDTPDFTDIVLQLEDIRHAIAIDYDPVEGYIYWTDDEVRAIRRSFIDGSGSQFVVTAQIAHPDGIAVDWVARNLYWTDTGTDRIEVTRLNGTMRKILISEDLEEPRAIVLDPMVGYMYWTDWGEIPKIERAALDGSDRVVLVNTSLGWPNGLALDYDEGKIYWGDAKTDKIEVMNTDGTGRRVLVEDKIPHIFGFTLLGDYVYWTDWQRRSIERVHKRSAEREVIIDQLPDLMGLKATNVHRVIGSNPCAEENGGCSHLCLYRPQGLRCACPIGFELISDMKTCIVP

B1: F3: antiFZD5, 8 (2919) scFv (scFv)
scFv: EVQLVESGGGLVQPGGSLRLSCAASGFNISYSYIHWVRQAPGKGLEWVASIYSSSGSTSYADSVKGRFTISADTSKNTAYLQMNSLRAEDTAVYYCARGAIDYWGQGTLVTVSSGGGGSGGGGSGGGGSDIQMTQSPSSLSASVGDRVTITCRASQSVSSAVAWYQQKPGKAPKLLIYSASSLYSGVPSRFSGSRSGTDFTLTISSLQPEDFATYYCQQWYSSGHVLITFGQGTKVEIK
B2: F1: antiFZD1, 2, 7, 5, 8 (18R5) scFv (scFv)
scFv: EVQLVESGGGLVQPGGSLRLSCAASGFTFSHYTLSWVRQAPGKGLEWVSVISGDGSYTYYADSVKGRFTISSDNSKNTLYLQMNSLRAEDTAVYYCARNFIKYVFANWGQGTLVTVSSGGGGSGGGGSGGGGSDIELTQPPSVSVAPGQTARISCSGDNIGSFYVHWYQQKPGQAPVLVIYDKSNRPSGIPERFSGSNSGNTATLTISGTQAEDEADYYCQSYANTLSLVFGGGTKLTVL
B3: F2: antiFZD1, 2, 7 (R2H1) scFv (scFv)
scFv: EVQLVESGGGLVQPGGSLRLSCAASGFNISSSYIHWVRQAPGKGLEWVAYIYSSYGSTYYADSVKGRFTISADTSKNTAYLQMNSLRAEDTAVYYCARASWYALDYWGQGTLVTVSSGSAASGSSGGSSSGADIQMTQSPSSLSASVGDRVTITCRASQSVSSAVAWYQQKPGKAPKLLIYSASSLYSGVPSRFSGSRSGTDFTLTISSLQPEDFATYYCQQYWYGVAPITFGQGTKVEIK
B4: F1:15:L1:Fc (bispecific antibody)
chain: EVQLVESGGGLVQPGGSLRLSCAASGFTFSHYTLSWVRQAPGKGLEWVSVISGDGSYTYYADSVKGRFTISSDNSKNTLYLQMNSLRAEDTAVYYCARNFIKYVFANWGQGTLVTVSSGGGGSGGGGSGGGGSDIELTQPPSVSVAPGQTARISCSGDNIGSFYVHWYQQKPGQAPVLVIYDKSNRPSGIPERFSGSNSGNTATLTISGTQAEDEADYYCQSYANTLSLVFGGGTKLTVLGSGSGGSGSGGSSGGDVKLVESGGGLVKLGGSLRLSCAASGFSFSTSYMSWVRQTPEKRLELVAAINLNGGSTYYSDTVKGRFTISRDNAKNTLYLQMSSLKSEDTAFYYCASELAGYGTPFAYWGQGTLVTVSAGSAASGSSGGSSSGADIVLTQSPATLSVTPGDSVSLSCKASQSISYNLHWYQQKSHESPRLLIKYTSQSISGIPSRFSGSGSGTDFTLTINNVETEDFGMYFCQQSNSWPLTFGAGTKLEVKGSGSGDKTHTCPPCPAPEAAGGPSVFLFPPKPKDTLMISRTPEVTCVVVDVSHEDPEVKFNWYVDGVEVHNAKTKPREEQYNSTYRVVSVLTVLHQDWLNGKEYKCKVSNKALGAPIEKTISKAKGQPREPQVYTLPPSREEMTKNQVSLTCLVKGFYPSDIAVEWESNGQPENNYKTTPPVLDSDGSFFLYSKLTVDKSRWQQGNVFSCSVMHEALHNHYTQKSLSLSPGK
notes: 2:2 tandem scFv-Fc
B5: F1:10:L1:Fc (bispecific antibody)
chain: EVQLVESGGGLVQPGGSLRLSCAASGFTFSHYTLSWVRQAPGKGLEWVSVISGDGSYTYYADSVKGRFTISSDNSKNTLYLQMNSLRAEDTAVYYCARNFIKYVFANWGQGTLVTVSSGGGGSGGGGSGGGGSDIELTQPPSVSVAPGQTARISCSGDNIGSFYVHWYQQKPGQAPVLVIYDKSNRPSGIPERFSGSNSGNTATLTISGTQAEDEADYYCQSYANTLSLVFGGGTKLTVLGSGSGGSGSGDVKLVESGGGLVKLGGSLRLSCAASGFSFSTSYMSWVRQTPEKRLELVAAINLNGGSTYYSDTVKGRFTISRDNAKNTLYLQMSSLKSEDTAFYYCASELAGYGTPFAYWGQGTLVTVSAGSAASGSSGGSSSGADIVLTQSPATLSVTPGDSVSLSCKASQSISYNLHWYQQKSHESPRLLIKYTSQSISGIPSRFSGSGSGTDFTLTINNVETEDFGMYFCQQSNSWPLTFGAGTKLEVKGSGSGDKTHTCPPCPAPEAAGGPSVFLFPPKPKDTLMISRTPEVTCVVVDVSHEDPEVKFNWYVDGVEVHNAKTKPREEQYNSTYRVVSVLTVLHQDWLNGKEYKCKVSNKALGAPIEKTISKAKGQPREPQVYTLPPSREEMTKNQVSLTCLVKGFYPSDIAVEWESNGQPENNYKTTPPVLDSDGSFFLYSKLTVDKSRWQQGNVFSCSVMHEALHNHYTQKSLSLSPGK
notes: 2:2 tandem scFv-Fc
B6: F1:5:L1:Fc (bispecific antibody)
chain: EVQLVESGGGLVQPGGSLRLSCAASGFTFSHYTLSWVRQAPGKGLEWVSVISGDGSYTYYADSVKGRFTISSDNSKNTLYLQMNSLRAEDTAVYYCARNFIKYVFANWGQGTLVTVSSGGGGSGGGGSGGGGSDIELTQPPSVSVAPGQTARISCSGDNIGSFYVHWYQQKPGQAPVLVIYDKSNRPSGIPERFSGSNSGNTATLTISGTQAEDEADYYCQSYANTLSLVFGGGTKLTVLGSGSGDVKLVESGGGLVKLGGSLRLSCAASGFSFSTSYMSWVRQTPEKRLELVAAINLNGGSTYYSDTVKGRFTISRDNAKNTLYLQMSSLKSEDTAFYYCASELAGYGTPFAYWGQGTLVTVSAGSAASGSSGGSSSGADIVLTQSPATLSVTPGDSVSLSCKASQSISYNLHWYQQKSHESPRLLIKYTSQSISGIPSRFSGSGSGTDFTLTINNVETEDFGMYFCQQSNSWPLTFGAGTKLEVKGSGSGDKTHTCPPCPAPEAAGGPSVFLFPPKPKDTLMISRTPEVTCVVVDVSHEDPEVKFNWYVDGVEVHNAKTKPREEQYNSTYRVVSVLTVLHQDWLNGKEYKCKVSNKALGAPIEKTISKAKGQPREPQVYTLPPSREEMTKNQVSLTCLVKGFYPSDIAVEWESNGQPENNYKTTPPVLDSDGSFFLYSKLTVDKSRWQQGNVFSCSVMHEALHNHYTQKSLSLSPGK
notes: 2:2 tandem scFv-Fc
B7: L1:10:F1:Fc (bispecific antibody)
chain: DVKLVESGGGLVKLGGSLRLSCAASGFSFSTSYMSWVRQTPEKRLELVAAINLNGGSTYYSDTVKGRFTISRDNAKNTLYLQMSSLKSEDTAFYYCASELAGYGTPFAYWGQGTLVTVSAGSAASGSSGGSSSGADIVLTQSPATLSVTPGDSVSLSCKASQSISYNLHWYQQKSHESPRLLIKYTSQSISGIPSRFSGSGSGTDFTLTINNVETEDFGMYFCQQSNSWPLTFGAGTKLEVKGSGSGGSGSGEVQLVESGGGLVQPGGSLRLSCAASGFTFSHYTLSWVRQAPGKGLEWVSVISGDGSYTYYADSVKGRFTISSDNSKNTLYLQMNSLRAEDTAVYYCARNFIKYVFANWGQGTLVTVSSGGGGSGGGGSGGGGSDIELTQPPSVSVAPGQTARISCSGDNIGSFYVHWYQQKPGQAPVLVIYDKSNRPSGIPERFSGSNSGNTATLTISGTQAEDEADYYCQSYANTLSLVFGGGTKLTVLGSGSGDKTHTCPPCPAPEAAGGPSVFLFPPKPKDTLMISRTPEVTCVVVDVSHEDPEVKFNWYVDGVEVHNAKTKPREEQYNSTYRVVSVLTVLHQDWLNGKEYKCKVSNKALGAPIEKTISKAKGQPREPQVYTLPPSREEMTKNQVSLTCLVKGFYPSDIAVEWESNGQPENNYKTTPPVLDSDGSFFLYSKLTVDKSRWQQGNVFSCSVMHEALHNHYTQKSLSLSPGK
notes: 2:2 tandem scFv-Fc
B8: L1:5:F1:Fc (bispecific antibody)
chain: DVKLVESGGGLVKLGGSLRLSCAASGFSFSTSYMSWVRQTPEKRLELVAAINLNGGSTYYSDTVKGRFTISRDNAKNTLYLQMSSLKSEDTAFYYCASELAGYGTPFAYWGQGTLVTVSAGSAASGSSGGSSSGADIVLTQSPATLSVTPGDSVSLSCKASQSISYNLHWYQQKSHESPRLLIKYTSQSISGIPSRFSGSGSGTDFTLTINNVETEDFGMYFCQQSNSWPLTFGAGTKLEVKGSGSGEVQLVESGGGLVQPGGSLRLSCAASGFTFSHYTLSWVRQAPGKGLEWVSVISGDGSYTYYADSVKGRFTISSDNSKNTLYLQMNSLRAEDTAVYYCARNFIKYVFANWGQGTLVTVSSGGGGSGGGGSGGGGSDIELTQPPSVSVAPGQTARISCSGDNIGSFYVHWYQQKPGQAPVLVIYDKSNRPSGIPERFSGSNSGNTATLTISGTQAEDEADYYCQSYANTLSLVFGGGTKLTVLGSGSGDKTHTCPPCPAPEAAGGPSVFLFPPKPKDTLMISRTPEVTCVVVDVSHEDPEVKFNWYVDGVEVHNAKTKPREEQYNSTYRVVSVLTVLHQDWLNGKEYKCKVSNKALGAPIEKTISKAKGQPREPQVYTLPPSREEMTKNQVSLTCLVKGFYPSDIAVEWESNGQPENNYKTTPPVLDSDGSFFLYSKLTVDKSRWQQGNVFSCSVMHEALHNHYTQKSLSLSPGK
B9: L1:15:F1:Fc (bispecific antibody)
chain: DVKLVESGGGLVKLGGSLRLSCAASGFSFSTSYMSWVRQTPEKRLELVAAINLNGGSTYYSDTVKGRFTISRDNAKNTLYLQMSSLKSEDTAFYYCASELAGYGTPFAYWGQGTLVTVSAGSAASGSSGGSSSGADIVLTQSPATLSVTPGDSVSLSCKASQSISYNLHWYQQKSHESPRLLIKYTSQSISGIPSRFSGSGSGTDFTLTINNVETEDFGMYFCQQSNSWPLTFGAGTKLEVKGSGSGGSGSGGSSGGEVQLVESGGGLVQPGGSLRLSCAASGFTFSHYTLSWVRQAPGKGLEWVSVISGDGSYTYYADSVKGRFTISSDNSKNTLYLQMNSLRAEDTAVYYCARNFIKYVFANWGQGTLVTVSSGGGGSGGGGSGGGGSDIELTQPPSVSVAPGQTARISCSGDNIGSFYVHWYQQKPGQAPVLVIYDKSNRPSGIPERFSGSNSGNTATLTISGTQAEDEADYYCQSYANTLSLVFGGGTKLTVLGSGSGDKTHTCPPCPAPEAAGGPSVFLFPPKPKDTLMISRTPEVTCVVVDVSHEDPEVKFNWYVDGVEVHNAKTKPREEQYNSTYRVVSVLTVLHQDWLNGKEYKCKVSNKALGAPIEKTISKAKGQPREPQVYTLPPSREEMTKNQVSLTCLVKGFYPSDIAVEWESNGQPENNYKTTPPVLDSDGSFFLYSKLTVDKSRWQQGNVFSCSVMHEALHNHYTQKSLSLSPGK
notes: 2:2 tandem scFv-Fc

The first test concerns the target T1, FZD5. In words: column 'Specificity (Clone name)' of the component table; method not given there.
In the case of B1, the binding result is on record as “binds”.
With B2, the binding result is given as “binds”.

A further test deals with FZD7 (UniProt O75084 44-163). Described as above.
Regarding B3, the binding result was “binds”.
B2: the binding result is “binds”.

The next test concerns the target T2, LRP6E1E2. Put plainly: BLI (Octet), FIG. 11B. On the technique in general: BLI is a label-free optical method that tracks binding on a fibre tip over time.
B4: the binding result is on record as “binds”.
Same read-out and setting: the result for B5 reads “binds”.
As to B6, the binding result is reported as “binds”.
On to B7, for which the binding result is “binds”.
Consider B8, for which the binding result is “binds”.
Same read-out and setting: to B9 belongs “binds”.

(Values after US20210292422A1 (SURROZEN, published 2021).)
